Data published in paper PMC3495302, “The putative K^+ channel subunit AtKCO3 forms stable dimers in Arabidopsis” (Frontiers in Plant Science, 2012).

B1: AtKCO3::GFP (natural protein, Arabidopsis thaliana, UniProt Q9XFR0 1-260, looked up)
chain: MPMTPSEFKNRLLFGSLPRSSSDPTDLQFTEPNVPPSLFSLPEHNDDTATDMAPDQETEQSVSKSIARQALALLVVYLSLGVLIYWLTLDSDNAYQTHPVAVALYFFVVTFCGFLIVHFVVKIGWLDSFCFSVMMVTTVGFGDRAFNTWLGTFLAAVWLLVSTLAVARAFLFLADARADKRNRERAKKVLGESISISQFFAADIDNDGRLSLAEFAIYKLKQMEKITQEDFIQICNQFDKLDRTQSGRITLVDLTTATSV
notes: AtKCO3 of Arabidopsis thaliana, locus AT5G46360; fusion of about 60 kDa; Made with pBI-35S-10H-GFP-JFH1 (Hong et al., 1999); the vector's name may mean further tag residues (surmise); source: transgenic Arabidopsis (CaMV 35S promoter, p35S-KCO3::GFP), in leaf homogenate; not shown: GFP, C-terminal, kept
B2: AtKCO3 (natural protein, Arabidopsis thaliana, UniProt Q9XFR0 1-260, looked up)
chain: B1 chain
notes: AtKCO3, putative one-pore K+ channel subunit of Arabidopsis thaliana, locus AT5G46360; cDNA from seedlings of ecotype C24; calculated mass 29 kDa; The AtKCO3 cDNA without tag was put into pBinAR-Kan; also called wild-type protein; source: transgenic Arabidopsis (CaMV 35S promoter, p35S-KCO3), in leaf homogenate
B3: γTIP (natural protein, UniProt P25818 1-251, looked up)
chain: MPIRNIAIGRPDEATRPDALKAALAEFISTLIFVVAGSGSGMAFNKLTENGATTPSGLVAAAVAHAFGLFVAVSVGANISGGHVNPAVTFGAFIGGNITLLRGILYWIAQLLGSVVACLILKFATGGLAVPAFGLSAGVGVLNAFVFEIVMTFGLVYTVYATAIDPKNGSLGTIAPIAIGFIVGANILAGGAFSGASMNPAVAFGPAVVSWTWTNHWVYWAGPLVGGGIAGLIYEVFFINTTHEQLPTTDY
notes: gamma-TIP, tonoplast aquaporin of Arabidopsis; detected with an antibody against its C-terminal nine amino acids; also called tonoplast aquaporin γTIP; source: endogenous, Arabidopsis leaf homogenate or microsomes

Target: the molecule itself
Assay: velocity sucrose gradient centrifugation; leaf homogenate in 200 mM NaCl, 0.2% Triton X-100, 50 mM Tris-Cl pH 7.8; linear 5-25% sucrose gradient with 150 mM NaCl, 0.1% Triton X-100, 200,000 x g, 25 h, 4°C; fractions by SDS-PAGE and western blot; mass markers in a further gradient

Q: Which “stoichiometry N” value does the source give for B1 here?
A: The value was 2.

Q: B2 was tested. Which “stoichiometry N” value did it give?
A: The value was 2.

Q: For B3, which “stoichiometry N” value is on record?
A: The value was 4.
